{
  "source": "the supplement of paper PMC9170038",
  "key": {"[1]": {"test_system": "MS2 coat protein", "assay": "apparent KD of MS2 coat protein; designed switch direction (-1 OFF switch, 1 ON switch): 1; higher = weaker reporter binding", "procedure,_shortened": "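The reported apparent KD is a per-design median over clusters, from curve fits of normalised cluster fluorescence. Protein titrations used SNAP-549-labelled MS2 coat protein, doubled from 0.7 or 1.5 nM to 3 µM, in Tris-HCl pH 7.5 buffer with KCl, MgCl2, BSA, DTT, tRNA and Tween-20, with no input, 200 uM small-molecule ligand, or an oligonucleotide input. The RNA switches were transcribed on Illumina chips by stalled E. coli RNA polymerase.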"}, "[2]": {"test_system": "MS2 coat protein", "assay": "apparent KD of MS2 coat protein; higher = weaker reporter binding", "conditions": "Eterna round: R107", "procedure,_shortened": "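Normalised binding curves from single clusters were fitted, and the median fit for each design is given as apparent KD. The clusters held designed RNA switches transcribed on-chip from Illumina sequencing clusters. These were titrated with SNAP-549-labelled MS2 coat protein (twofold steps from 0.7 or 1.5 nM to 3 µM, 0.8–1.5 h to 10–20 min per step) in 100 mM Tris-HCl pH 7.5, 80 mM KCl, 4 mM MgCl2, without or with constant ligand.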"}, "[3]": {"conditions": "Eterna round: R95, input ligand: FMN 200 uM"}, "[4]": {"conditions": "Eterna round: R95, input ligand: microRNA oligo, concentration not stated"}, "[5]": {"conditions": "Eterna round: R95, input ligand: none"}, "[6]": {"conditions": "input ligand: microRNA oligo, concentration not stated"}, "[7]": {"conditions": "input ligand: theophylline 20 uM"}, "[8]": {"conditions": "input ligand: theophylline 2 mM"}, "[9]": {"conditions": "input ligand: tryptophan 2.4 mM"}},
  "data": [
    {"sequence": "AAAACACAUGAGGAUCACCCAUGUACCAGGUACAUAGGAUAUCCAGGCGCCAAAUAGCGCGGAGAAGGAUGGAAAA [Radireatdi] (puzzle: Same State 1)", "values": [
      {"measurement": "apparent KD of MS2 coat protein", "setting": "[1]; [3]", "result": 78.2, "unit": "nM"},
      {"measurement": "apparent KD of MS2 coat protein", "setting": "[1]; [4]", "result": 237, "unit": "nM"},
      {"measurement": "apparent KD of MS2 coat protein", "setting": "[1]; [5]", "result": 1760, "unit": "nM"}
    ]},
    {"sequence": "AAAAUAAGCCCUUGCACAUGAGGAUCACCCAUGUUCGGUUCACAGGAUAUCUAGUCAAACGGGCUGGAGAAGGGUGGCAAGGAC [Xequusceus] (Eterna round: R96, puzzle: Same State NG 3)", "values": [
      {"measurement": "apparent KD of MS2 coat protein", "setting": "[1]; input ligand: FMN 200 uM", "result": 67.7, "unit": "nM"},
      {"measurement": "apparent KD of MS2 coat protein", "setting": "[1]; [6]", "result": 278, "unit": "nM"},
      {"measurement": "apparent KD of MS2 coat protein", "setting": "[1]; input ligand: none", "result": 227, "unit": "nM"}
    ]},
    {"sequence": "AAAAUACAUGAGGAUCACCCAUGUAGAAACUACACAGGAUAUCGGACGGCUGUAGCCAAACGAGAAGGGUGAACCC [Ramazaza] (puzzle: Same State 1)", "values": [
      {"measurement": "apparent KD of MS2 coat protein", "setting": "[1]; [3]", "result": 90.8, "unit": "nM"},
      {"measurement": "apparent KD of MS2 coat protein", "setting": "[1]; [4]", "result": 60.8, "unit": "nM"},
      {"measurement": "apparent KD of MS2 coat protein", "setting": "[1]; [5]", "result": 92, "unit": "nM"}
    ]},
    {"sequence": "AAAAUGGGAUUUUACAUGAGGAUCACCCAUGUGGGUAUCACUGAGGAUAUGAGGAUCUUGAAAAAUCAGAAGGCAGAAUUUCAA [AK SSNG3-V2-21] (Eterna round: R96, puzzle: Same State NG 3)", "values": [
      {"measurement": "apparent KD of MS2 coat protein", "setting": "[1]; input ligand: FMN 200 uM", "result": 410, "unit": "nM"},
      {"measurement": "apparent KD of MS2 coat protein", "setting": "[1]; [6]", "result": 288, "unit": "nM"},
      {"measurement": "apparent KD of MS2 coat protein", "setting": "[1]; input ligand: none", "result": 329, "unit": "nM"}
    ]},
    {"sequence": "AAACGAAACACGGCCACAUGAGGAUCACCCAUGUCGAGUUCACAGGAUAUACCUACGUCCUCGUGGUAGAAGGGUGAGGCUGUG [Rienat] (Eterna round: R96, puzzle: Same State NG 3)", "values": [
      {"measurement": "apparent KD of MS2 coat protein", "setting": "[1]; input ligand: FMN 200 uM", "result": 750, "unit": "nM"},
      {"measurement": "apparent KD of MS2 coat protein", "setting": "[1]; [6]", "result": 39.5, "unit": "nM"},
      {"measurement": "apparent KD of MS2 coat protein", "setting": "[1]; input ligand: none", "result": 215, "unit": "nM"}
    ]},
    {"sequence": "AAAGAAAACGCAGGAUAUCCCGGAAUGGAACCGGGAGAAGGGUGACCGGUACAUGAGGAUCACCCAUGUAGAGCAAAGGCUCAA [Oninqu] (Eterna round: R96, puzzle: Same State NG 1)", "values": [
      {"measurement": "apparent KD of MS2 coat protein", "setting": "[1]; input ligand: FMN 200 uM", "result": 78, "unit": "nM"},
      {"measurement": "apparent KD of MS2 coat protein", "setting": "[1]; [6]", "result": 114, "unit": "nM"},
      {"measurement": "apparent KD of MS2 coat protein", "setting": "[1]; input ligand: none", "result": 124, "unit": "nM"}
    ]},
    {"sequence": "UUUAGUCAAUCGGCCGCCACUGACAUGAGGAUCACCCAUGUAGGUAAGGAUCAACCUCGAAAGUACAGGACCGGGAUUCGCCUCU [theeternabot_exclusion_MS2_Trp_B_45]", "values": [
      {"measurement": "apparent KD of MS2 coat protein", "setting": "[2]; input ligand: arginine 13.2 mM", "result": 51.7, "unit": "nM"},
      {"measurement": "apparent KD of MS2 coat protein", "setting": "[2]; [7]", "result": 67.6, "unit": "nM"},
      {"measurement": "apparent KD of MS2 coat protein", "setting": "[2]; [8]", "result": 65, "unit": "nM"}
    ]},
    {"sequence": "UUUAUAUAGACGGCCGCCACUGGAAUUAAUACAUGAGGAUCACCCAUGUAUAGAGAAUAAUAAUACAGGACCGGGUCUUCAUGAU [SS Tryp B Tesla 1.1]", "values": [
      {"measurement": "apparent KD of MS2 coat protein", "setting": "[2]; input ligand: arginine 13.2 mM", "result": 28.3, "unit": "nM"},
      {"measurement": "apparent KD of MS2 coat protein", "setting": "[2]; [7]", "result": 34.2, "unit": "nM"},
      {"measurement": "apparent KD of MS2 coat protein", "setting": "[2]; [8]", "result": 33.7, "unit": "nM"}
    ]},
    {"sequence": "UUUGACGGCGAUCUGGGUUUACCAGAUCGGCGAGGACCGGUACGGCCGCCACUCGUGUUUCUUUGACAUGAGGAUCACCCAUGUA [whbob_SS_trypto A_f2]", "values": [
      {"measurement": "apparent KD of MS2 coat protein", "setting": "[2]; input ligand: arginine 13.2 mM", "result": 38.4, "unit": "nM"},
      {"measurement": "apparent KD of MS2 coat protein", "setting": "[2]; [7]", "result": 57.3, "unit": "nM"},
      {"measurement": "apparent KD of MS2 coat protein", "setting": "[2]; [8]", "result": 60.5, "unit": "nM"}
    ]},
    {"sequence": "UUUGAUAGGACAGAUACCAGCGUGUUAUAAAACAUGAGGAUCACCCAUGUAGUGAUCAAGCGCCCUUGGCAGCUGGUUUGUUAGG [7.J]", "values": [
      {"measurement": "apparent KD of MS2 coat protein", "setting": "[2]; input ligand: arginine 13.2 mM", "result": 73.5, "unit": "nM"},
      {"measurement": "apparent KD of MS2 coat protein", "setting": "[2]; [7]", "result": 220, "unit": "nM"},
      {"measurement": "apparent KD of MS2 coat protein", "setting": "[2]; [9]", "result": 207, "unit": "nM"}
    ]},
    {"sequence": "UUUGAUAGGACAGAUACCAGCGUGUUGUAGAACAUGAGGAUCACCCAUGUAGUGAUCAAGCGCCCUUGGCAGCUGGUUUGUUAGG [7.L]", "values": [
      {"measurement": "apparent KD of MS2 coat protein", "setting": "[2]; input ligand: arginine 13.2 mM", "result": 184, "unit": "nM"},
      {"measurement": "apparent KD of MS2 coat protein", "setting": "[2]; [7]", "result": 350, "unit": "nM"},
      {"measurement": "apparent KD of MS2 coat protein", "setting": "[2]; [9]", "result": 363, "unit": "nM"}
    ]},
    {"sequence": "UUUUAGCAUCGAAGGAGCGCUGGUGAAACUGACUAUGGAACAUGAGGAUCACCCAUGUGCUAGCAGGUAGGUCGCGAUGCUAUUU [SSAB NP+V+V2 #10]", "values": [
      {"measurement": "apparent KD of MS2 coat protein", "setting": "[2]; input ligand: arginine 13.2 mM", "result": 16.9, "unit": "nM"},
      {"measurement": "apparent KD of MS2 coat protein", "setting": "[2]; input ligand: none", "result": 17.6, "unit": "nM"},
      {"measurement": "apparent KD of MS2 coat protein", "setting": "[2]; [7]", "result": 20.7, "unit": "nM"},
      {"measurement": "apparent KD of MS2 coat protein", "setting": "[2]; [8]", "result": 18.1, "unit": "nM"},
      {"measurement": "apparent KD of MS2 coat protein", "setting": "[2]; [9]", "result": 14.9, "unit": "nM"}
    ]},
    {"sequence": "UUUUUUAUCAUGGCGUAUCGGAAAACCGAUACCAGUACAGAAAUGUACCCUUGGCAGCGGCGUUUUACAUGAGGAUCACCCAUGU [Ex Theophylline A 4]", "values": [
      {"measurement": "apparent KD of MS2 coat protein", "setting": "[2]; input ligand: arginine 13.2 mM", "result": 15.1, "unit": "nM"},
      {"measurement": "apparent KD of MS2 coat protein", "setting": "[2]; [7]", "result": 23.7, "unit": "nM"},
      {"measurement": "apparent KD of MS2 coat protein", "setting": "[2]; [9]", "result": 14.9, "unit": "nM"}
    ]}
  ]
}
